Data as given in US20220332785A1.

B1: 4285-PBL-TCR1 (TCR)
TCR alpha: KTTQPNSMESNEEEPVHLPCNHSTISGTDYIHWYRQLPSQGPEYVIHGLTSNVNNRMASLAIAEDRKSSTLILHRATLRDAAVYYCILRDNNARLMFGDGTQLVVKPNIQNPEPAVYQLKDPRSQDSTLCLFTDFDSQINVPKTMESGTFITDKCVLDMKAMDSKSNGAIAWSNQTSFTCQDIFKETNATYPSSDVPCDATLTEKSFETDMNLNFQNLLVIVLRILLLKVAGFNLLMTLRLWSS
TCR beta: QVTQNPRYLITVTGKKLTVTCSQNMNHEYMSWYRQDPGLGLRQIYYSMNVEVTDKGDVPEGYKVSRKEKRNFPLILESPSPNQTSLYFCASGLVGFNQPQHFGDGTRLSILEDLRNVTPPKVSLFEPSKAEIANKQKATLVCLARGFFPDHVELSWWVNGKEVHSGVCTDPQAYKESNYSYCLSSRLRVSATFWHNPRNHFRCQVQFHGLSEEDKWPEGSPKPVTQNISAEAWGRADCGITSASYQQGVLSATILYEILLGKATLYAVLVSTLVVMAMVKRKNS
B2: 4285-PBL-TCR2 (TCR)
TCR alpha: KTTQPPSMDCAEGRAANLPCNHSTISGNEYVYWYRQIHSQGPQYIIHGLKNNETNEMASLIITEDRKSSTLILPHATLRDTAVYYCIVRARANAGGTSYGKLTFGQGTILTVHPNIQNPEPAVYQLKDPRSQDSTLCLFTDFDSQINVPKTMESGTFITDKCVLDMKAMDSKSNGAIAWSNQTSFTCQDIFKETNATYPSSDVPCDATLTEKSFETDMNLNFQNLLVIVLRILLLKVAGFNLLMTLRLWSS
TCR beta: GITQSPKYLFRKEGQNVTLSCEQNLNHDAMYWYRQDPGQGLRLIYYSQIVNDFQKGDIAEGYSVSREKKESFPLTVTSAQKNPTAFYLCASLQFNEQFFGPGTRLTVLEDLRNVTPPKVSLFEPSKAEIANKQKATLVCLARGFFPDHVELSWWVNGKEVHSGVCTDPQAYKESNYSYCLSSRLRVSATFWHNPRNHFRCQVQFHGLSEEDKWPEGSPKPVTQNISAEAWGRADCGITSASYQQGVLSATILYEILLGKATLYAVLVSTLVVMAMVKRKNS
B3: 4285-PBL-TCR3 (TCR)
TCR alpha: KDQVFQPSTVASSEGAVVEIFCNHSVSNAYNFFWYLHFPGCAPRLLVKGSKPSQQGRYNMTYERFSSSLLILQVREADAAVYYCAVEDRRRTALIFGKGTTLSVSSNIQNPEPAVYQLKDPRSQDSTLCLFTDFDSQINVPKTMESGTFITDKCVLDMKAMDSKSNGAIAWSNQTSFTCQDIFKETNATYPSSDVPCDATLTEKSFETDMNLNFQNLLVIVLRILLLKVAGFNLLMTLRLWSS
TCR beta: EPEVTQTPSHQVTQMGQEVILRCVPISNHLYFYWYRQILGQKVEFLVSFYNNEISEKSEIFDDQFSVERPDGSNFTLKIRSTKLEDSAMYFCASSEYQSQSNEQFFGPGTRLTVLEDLRNVTPPKVSLFEPSKAEIANKQKATLVCLARGFFPDHVELSWWVNGKEVHSGVCTDPQAYKESNYSYCLSSRLRVSATFWHNPRNHFRCQVQFHGLSEEDKWPEGSPKPVTQNISAEAWGRADCGITSASYQQGVLSATILYEILLGKATLYAVLVSTLVVMAMVKRKNS
B4: 4285-PBL-TCR5 (TCR)
TCR alpha: KTTQPPSMDCAEGRAANLPCNHSTISGNEYVYWYRQIHSQGPQYIIHGLKNNETNEMASLIITEDRKSSTLILPHATLRDTAVYYCIVRGSPGAGGTSYGKLTFGQGTILTVHPNIQNPEPAVYQLKDPRSQDSTLCLFTDFDSQINVPKTMESGTFITDKCVLDMKAMDSKSNGAIAWSNQTSFTCQDIFKETNATYPSSDVPCDATLTEKSFETDMNLNFQNLLVIVLRILLLKVAGFNLLMTLRLWSS
TCR beta: GITQSPKYLFRKEGQNVTLSCEQNLNHDAMYWYRQDPGQGLRLIYYSQIVNDFQKGDIAEGYSVSREKKESFPLTVTSAQKNPTAFYLCASSIRTEAFFGQGTRLTVVEDLRNVTPPKVSLFEPSKAEIANKQKATLVCLARGFFPDHVELSWWVNGKEVHSGVCTDPQAYKESNYSYCLSSRLRVSATFWHNPRNHFRCQVQFHGLSEEDKWPEGSPKPVTQNISAEAWGRADCGITSASYQQGVLSATILYEILLGKATLYAVLVSTLVVMAMVKRKNS
B5: 4285-PBL-TCR6 (TCR)
TCR alpha: QQVMQIPQYQHVQEGEDFTTYCNSSTTLSNIQWYKQRPGGHPVFLIQLVKSGEVKKQKRLTFQFGEAKKNSSLHITATQTTDVGTYFCAGPGGAGSYQLTFGKGTKLSVIPNIQNPEPAVYQLKDPRSQDSTLCLFTDFDSQINVPKTMESGTFITDKCVLDMKAMDSKSNGAIAWSNQTSFTCQDIFKETNATYPSSDVPCDATLTEKSFETDMNLNFQNLLVIVLRILLLKVAGFNLLMTLRLWSS
TCR beta: QVTQNPRYLITVTGKKLTVTCSQNMNHEYMSWYRQDPGLGLRQIYYSMNVEVTDKGDVPEGYKVSRKEKRNFPLILESPSPNQTSLYFCASSPFVVIGQINEQYFGPGTRLTVTEDLRNVTPPKVSLFEPSKAEIANKQKATLVCLARGFFPDHVELSWWVNGKEVHSGVCTDPQAYKESNYSYCLSSRLRVSATFWHNPRNHFRCQVQFHGLSEEDKWPEGSPKPVTQNISAEAWGRADCGITSASYQQGVLSATILYEILLGKATLYAVLVSTLVVMAMVKRKNS
B6: 4285-PBL-TCR7 (TCR)
TCR alpha: ELKVEQNPLFLSMQEGKNYTIYCNYSTTSDRLYWYRQDPGKSLESLFVLLSNGAVKQEGRLMASLDTKARLSTLHITAAVHDLSATYFCAVAHMDSNYQLIWGAGTKLIIKPNIQNPEPAVYQLKDPRSQDSTLCLFTDFDSQINVPKTMESGTFITDKCVLDMKAMDSKSNGAIAWSNQTSFTCQDIFKETNATYPSSDVPCDATLTEKSFETDMNLNFQNLLVIVLRILLLKVAGFNLLMTLRLWSS
TCR beta: GVTQTPKFRVLKTGQSMTLLCAQDMNHEYMYWYRQDPGMGLRLIHYSVGEGTTAKGEVPDGYNVSRLKKQNFLLGLESAAPSQTSVYFCASSYAGLAAPREQFFGPGTRLTVLEDLRNVTPPKVSLFEPSKAEIANKQKATLVCLARGFFPDHVELSWWVNGKEVHSGVCTDPQAYKESNYSYCLSSRLRVSATFWHNPRNHFRCQVQFHGLSEEDKWPEGSPKPVTQNISAEAWGRADCGITSASYQQGVLSATILYEILLGKATLYAVLVSTLVVMAMVKRKNS
B7: 4285-PBL-TCR9 (TCR)
TCR alpha: KTTQPPSMDCAEGRAANLPCNHSTISGNEYVYWYRQIHSQGPQYIIHGLKNNETNEMASLIITEDRKSSTLILPHATLRDTAVYYCIVRARANAGGTSYGKLTFGQGTILTVHPNIQNPEPAVYQLKDPRSQDSTLCLFTDFDSQINVPKTMESGTFITDKCVLDMKAMDSKSNGAIAWSNQTSFTCQDIFKETNATYPSSDVPCDATLTEKSFETDMNLNFQNLLVIVLRILLLKVAGFNLLMTLRLWSS
TCR beta: GITQSPKYLFRKEGQNVTLSCEQNLNHDAMYWYRQDPGQGLRLIYYSQIVNDFQKGDIAEGYSVSREKKESFPLTVTSAQKNPTAFYLCATRTGNEAFFGQGTRLTVVEDLRNVTPPKVSLFEPSKAEIANKQKATLVCLARGFFPDHVELSWWVNGKEVHSGVCTDPQAYKESNYSYCLSSRLRVSATFWHNPRNHFRCQVQFHGLSEEDKWPEGSPKPVTQNISAEAWGRADCGITSASYQQGVLSATILYEILLGKATLYAVLVSTLVVMAMVKRKNS

Target: p53^R175H LP … (SEQ ID NO: 111) in the context of HLA-DRB1*13:01 (human)
Experiment: cell-based or functional assay

| Binder | functional avidity: interferon-gamma secretion (ELISA), lowest peptide concentration recognized |
| --- | --- |
| B1 | 10 ng/mL |
| B2 | 10 ng/mL |
| B3 | 10 ng/mL |
| B4 | 10 ng/mL |
| B5 | 10 ng/mL |
| B6 | 10 ng/mL |
| B7 | 10 ng/mL |
